Experimental data taken from US20240141072A1 (published 2024).

Tests used:
Assay in all cases: Octet BLI; biotinylated huDLL3-IgG1 fusion on streptavidin tips; single 50 nM trispecific, conditioned medium
[1] = biological target: T1, anti-DLL3 trispecific protein with DLL3 binding domain 52C04
T1 construct: trispecific, one chain; also called 52C4
Procedure: (§1) Using the conditioned medium with known concentrations of the anti-DLL3 trispecific proteins, the relative binding affinities of the anti-DLL3 trispecific proteins toward human DLL3 protein were measured using a method where biotinylated version of human DLL3 protein were expressed as a human IgG1 fusion protein, and the binding affinity measurement was carried out in an Octet instrument with streptavidin tips.

[2] = biological target: T2, anti-DLL3 trispecific protein with DLL3 binding domain 51A05
T2 construct: trispecific, one chain; also called 51A5
Procedure: as §1

[3] = biological target: T3, anti-DLL3 trispecific protein with DLL3 binding domain 51A02
T3 construct: trispecific, one chain
Procedure: as §1

[4] = biological target: T4, anti-DLL3 trispecific protein with DLL3 binding domain 42G07
T4 construct: trispecific, one chain
Procedure: as §1

[5] = biological target: T5, anti-DLL3 trispecific protein with DLL3 binding domain 53C04
T5 construct: trispecific, one chain
Procedure: as §1

[6] = biological target: T6, anti-DLL3 trispecific protein with DLL3 binding domain 51B01
T6 construct: trispecific, one chain
Procedure: as §1

[7] = biological target: T7, anti-DLL3 trispecific protein with DLL3 binding domain 41C02
T7 construct: trispecific, one chain
Procedure: as §1

[8] = biological target: T8, anti-DLL3 trispecific protein with DLL3 binding domain 42H05
T8 construct: trispecific, one chain
Procedure: as §1

[9] = biological target: T9, anti-DLL3 trispecific protein with DLL3 binding domain 42E02
T9 construct: trispecific, one chain
Procedure: as §1

[10] = biological target: T10, anti-DLL3 trispecific protein with DLL3 binding domain 42C10
T10 construct: trispecific, one chain
Procedure: as §1

[11] = biological target: T11, anti-DLL3 trispecific protein with DLL3 binding domain 42B06
T11 construct: trispecific, one chain
Procedure: as §1

[12] = biological target: T12, anti-DLL3 trispecific protein with DLL3 binding domain 53B05
T12 construct: trispecific, one chain
Procedure: as §1

[13] = biological target: T13, anti-DLL3 trispecific protein with DLL3 binding domain 51E02
T13 construct: trispecific, one chain
Procedure: as §1

[14] = biological target: T14, anti-DLL3 trispecific protein with DLL3 binding domain 41E01
T14 construct: trispecific, one chain
Procedure: as §1

[15] = biological target: T15, anti-DLL3 trispecific protein with DLL3 binding domain 42D07
T15 construct: trispecific, one chain
Procedure: as §1

[16] = biological target: T16, anti-DLL3 trispecific protein with DLL3 binding domain 42C07
T16 construct: trispecific, one chain
Procedure: as §1

[17] = biological target: T17, anti-DLL3 trispecific protein with DLL3 binding domain 51H05
T17 construct: trispecific, one chain; also called 51H5
Procedure: as §1

T2 sequence (chain, as listed by the source): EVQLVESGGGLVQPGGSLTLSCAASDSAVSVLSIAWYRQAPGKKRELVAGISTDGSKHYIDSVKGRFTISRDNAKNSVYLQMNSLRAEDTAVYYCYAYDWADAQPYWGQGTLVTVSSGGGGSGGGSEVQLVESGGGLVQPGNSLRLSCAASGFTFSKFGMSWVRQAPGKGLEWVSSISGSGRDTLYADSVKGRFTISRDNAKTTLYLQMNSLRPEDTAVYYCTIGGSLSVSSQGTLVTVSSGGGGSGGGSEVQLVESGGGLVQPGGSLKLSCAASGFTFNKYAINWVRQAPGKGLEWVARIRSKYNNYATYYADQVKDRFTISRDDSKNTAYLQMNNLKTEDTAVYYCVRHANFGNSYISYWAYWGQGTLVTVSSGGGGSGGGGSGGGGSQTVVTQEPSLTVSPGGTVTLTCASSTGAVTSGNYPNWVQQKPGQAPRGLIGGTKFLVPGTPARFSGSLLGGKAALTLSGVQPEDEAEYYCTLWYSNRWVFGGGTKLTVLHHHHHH
T3 sequence (chain, as listed by the source): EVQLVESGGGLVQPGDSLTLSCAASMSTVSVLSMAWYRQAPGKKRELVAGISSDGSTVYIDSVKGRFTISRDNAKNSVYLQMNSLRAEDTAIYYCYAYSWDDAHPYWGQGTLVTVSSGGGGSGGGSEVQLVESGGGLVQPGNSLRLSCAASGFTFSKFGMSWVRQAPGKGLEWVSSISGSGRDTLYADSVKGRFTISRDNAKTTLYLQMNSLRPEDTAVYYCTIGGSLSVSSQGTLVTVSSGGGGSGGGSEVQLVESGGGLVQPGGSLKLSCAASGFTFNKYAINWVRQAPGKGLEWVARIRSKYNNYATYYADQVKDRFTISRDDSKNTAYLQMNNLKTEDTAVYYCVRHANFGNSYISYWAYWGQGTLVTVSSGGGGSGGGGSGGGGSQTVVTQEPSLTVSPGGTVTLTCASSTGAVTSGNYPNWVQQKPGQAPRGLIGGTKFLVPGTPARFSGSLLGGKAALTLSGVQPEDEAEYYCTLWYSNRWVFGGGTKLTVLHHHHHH
T13 sequence (chain, as listed by the source): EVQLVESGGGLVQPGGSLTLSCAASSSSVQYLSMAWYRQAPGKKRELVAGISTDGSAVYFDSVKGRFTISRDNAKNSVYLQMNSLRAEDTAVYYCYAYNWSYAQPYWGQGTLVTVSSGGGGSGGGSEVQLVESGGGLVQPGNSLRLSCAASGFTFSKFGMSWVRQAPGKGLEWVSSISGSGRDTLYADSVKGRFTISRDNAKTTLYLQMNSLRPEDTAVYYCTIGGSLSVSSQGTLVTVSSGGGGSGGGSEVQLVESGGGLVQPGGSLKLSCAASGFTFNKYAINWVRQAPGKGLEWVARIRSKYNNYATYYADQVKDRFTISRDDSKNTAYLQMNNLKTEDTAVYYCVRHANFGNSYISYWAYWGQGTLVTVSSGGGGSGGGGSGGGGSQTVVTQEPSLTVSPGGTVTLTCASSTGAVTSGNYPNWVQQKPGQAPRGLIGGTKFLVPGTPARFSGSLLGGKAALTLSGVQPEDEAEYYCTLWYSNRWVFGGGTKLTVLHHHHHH
T9 sequence (chain, as listed by the source): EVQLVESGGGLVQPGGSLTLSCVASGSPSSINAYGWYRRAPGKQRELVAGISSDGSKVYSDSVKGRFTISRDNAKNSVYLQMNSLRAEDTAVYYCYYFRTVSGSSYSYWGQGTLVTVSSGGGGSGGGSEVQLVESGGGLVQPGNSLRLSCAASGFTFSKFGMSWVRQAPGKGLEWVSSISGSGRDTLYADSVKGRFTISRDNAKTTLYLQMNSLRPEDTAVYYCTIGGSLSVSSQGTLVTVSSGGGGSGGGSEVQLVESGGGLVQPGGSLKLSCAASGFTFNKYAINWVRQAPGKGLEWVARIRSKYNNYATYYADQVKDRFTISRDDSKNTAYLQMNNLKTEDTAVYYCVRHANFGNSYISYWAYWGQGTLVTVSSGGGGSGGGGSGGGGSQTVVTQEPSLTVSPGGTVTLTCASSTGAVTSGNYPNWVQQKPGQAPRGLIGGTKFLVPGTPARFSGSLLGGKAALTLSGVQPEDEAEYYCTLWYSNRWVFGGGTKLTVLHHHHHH
T8 sequence (chain, as listed by the source): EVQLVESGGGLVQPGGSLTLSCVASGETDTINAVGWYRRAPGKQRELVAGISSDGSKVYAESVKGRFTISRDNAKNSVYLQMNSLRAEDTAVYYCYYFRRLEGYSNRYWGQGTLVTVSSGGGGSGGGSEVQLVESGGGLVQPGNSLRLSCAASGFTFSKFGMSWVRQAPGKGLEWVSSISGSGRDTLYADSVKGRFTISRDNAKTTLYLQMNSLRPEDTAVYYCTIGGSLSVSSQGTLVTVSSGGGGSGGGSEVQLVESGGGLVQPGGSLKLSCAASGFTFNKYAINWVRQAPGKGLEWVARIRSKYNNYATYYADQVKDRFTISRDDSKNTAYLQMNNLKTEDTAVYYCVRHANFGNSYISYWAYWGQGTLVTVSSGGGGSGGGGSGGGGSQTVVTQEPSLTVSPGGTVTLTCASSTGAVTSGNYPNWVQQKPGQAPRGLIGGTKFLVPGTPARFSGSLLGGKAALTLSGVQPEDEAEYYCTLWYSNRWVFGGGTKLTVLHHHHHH
T11 sequence (chain, as listed by the source): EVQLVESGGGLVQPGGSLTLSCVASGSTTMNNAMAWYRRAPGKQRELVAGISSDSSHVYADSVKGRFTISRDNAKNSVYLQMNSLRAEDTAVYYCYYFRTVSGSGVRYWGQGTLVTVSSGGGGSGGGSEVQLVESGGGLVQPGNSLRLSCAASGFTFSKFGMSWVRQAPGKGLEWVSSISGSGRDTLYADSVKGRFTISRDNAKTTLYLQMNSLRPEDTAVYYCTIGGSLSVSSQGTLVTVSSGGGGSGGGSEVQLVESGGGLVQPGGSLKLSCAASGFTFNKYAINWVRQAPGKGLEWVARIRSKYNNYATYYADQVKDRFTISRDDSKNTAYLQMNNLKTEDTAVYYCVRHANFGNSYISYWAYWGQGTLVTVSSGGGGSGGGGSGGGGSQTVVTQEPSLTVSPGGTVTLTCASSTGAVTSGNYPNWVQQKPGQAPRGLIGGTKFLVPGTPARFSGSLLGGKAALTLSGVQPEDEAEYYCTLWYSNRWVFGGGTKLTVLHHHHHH
T17 sequence (chain, as listed by the source): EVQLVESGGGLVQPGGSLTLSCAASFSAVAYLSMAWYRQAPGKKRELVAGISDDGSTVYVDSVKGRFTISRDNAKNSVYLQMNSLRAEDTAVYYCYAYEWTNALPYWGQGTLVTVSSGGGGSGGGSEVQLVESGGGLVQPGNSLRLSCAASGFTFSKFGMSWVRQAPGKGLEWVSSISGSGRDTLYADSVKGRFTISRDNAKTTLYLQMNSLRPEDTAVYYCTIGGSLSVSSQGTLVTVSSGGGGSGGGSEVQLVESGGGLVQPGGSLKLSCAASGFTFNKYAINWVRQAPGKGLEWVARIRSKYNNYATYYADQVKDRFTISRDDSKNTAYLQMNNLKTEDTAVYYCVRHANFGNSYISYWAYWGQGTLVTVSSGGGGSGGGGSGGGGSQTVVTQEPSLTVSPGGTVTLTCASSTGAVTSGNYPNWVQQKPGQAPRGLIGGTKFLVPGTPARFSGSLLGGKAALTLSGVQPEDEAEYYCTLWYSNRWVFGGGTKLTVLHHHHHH
T10 sequence (chain, as listed by the source): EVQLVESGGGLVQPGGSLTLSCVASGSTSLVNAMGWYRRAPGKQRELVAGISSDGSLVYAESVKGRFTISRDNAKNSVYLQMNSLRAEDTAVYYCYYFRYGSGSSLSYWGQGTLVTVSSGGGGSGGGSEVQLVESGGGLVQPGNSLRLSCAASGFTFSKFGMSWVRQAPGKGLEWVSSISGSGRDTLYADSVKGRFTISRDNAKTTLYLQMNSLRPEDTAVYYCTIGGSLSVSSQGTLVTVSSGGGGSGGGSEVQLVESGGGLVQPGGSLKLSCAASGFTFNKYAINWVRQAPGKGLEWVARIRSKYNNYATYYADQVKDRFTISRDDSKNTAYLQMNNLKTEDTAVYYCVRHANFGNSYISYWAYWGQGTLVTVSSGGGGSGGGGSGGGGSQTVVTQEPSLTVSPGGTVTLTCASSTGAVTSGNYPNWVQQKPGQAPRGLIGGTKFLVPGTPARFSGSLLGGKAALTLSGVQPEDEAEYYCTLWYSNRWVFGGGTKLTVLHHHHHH
T14 sequence (chain, as listed by the source): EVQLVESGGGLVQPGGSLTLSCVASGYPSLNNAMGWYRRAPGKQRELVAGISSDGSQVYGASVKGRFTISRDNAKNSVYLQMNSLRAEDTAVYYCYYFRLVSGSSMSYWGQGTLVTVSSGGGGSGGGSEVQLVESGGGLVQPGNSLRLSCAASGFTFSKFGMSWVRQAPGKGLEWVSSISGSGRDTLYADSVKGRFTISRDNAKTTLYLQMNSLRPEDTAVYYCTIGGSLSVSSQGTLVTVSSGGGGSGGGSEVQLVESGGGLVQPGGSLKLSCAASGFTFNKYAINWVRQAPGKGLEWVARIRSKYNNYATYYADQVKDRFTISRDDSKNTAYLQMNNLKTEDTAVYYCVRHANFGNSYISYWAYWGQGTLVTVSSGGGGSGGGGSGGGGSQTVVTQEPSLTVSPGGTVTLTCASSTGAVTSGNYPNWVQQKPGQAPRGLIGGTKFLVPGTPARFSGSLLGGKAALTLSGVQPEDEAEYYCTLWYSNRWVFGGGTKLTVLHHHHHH

Kd [1]: 0.82 nM
Kd [2]: 1.1 nM
Kd [3]: 1.2 nM
Kd [4]: 1.3 nM
Kd [5]: 0.5 nM
Kd [6]: 1.6 nM
Kd [7]: 2.4 nM
Kd [8]: 2.7 nM
Kd [9]: 2.9 nM
Kd [10]: 3.2 nM
Kd [11]: 3.2 nM
Kd [12]: 0.6 nM
Kd [13]: 3.5 nM
Kd [14]: 5.3 nM
Kd [15]: 5.3 nM
Kd [16]: 6.4 nM
Kd [17]: 0.67 nM
B1: biotinylated human DLL3 protein expressed as a human IgG1 fusion protein (Fc fusion, not shown: a dimerising Fc or GST)
chain: AGVFELQIHSFGPGPGPGAPRSPCSARLPCRLFFRVCLKPGLSEEAAESPCALGAALSARGPVYTEQPGAPAPDLPLPDGLLQVPFRDAWPGTFSFIIETWREELGDQIGGPAWSLLARVAGRRRLAAGGPWARDIQRAGAWELRFSYRARCEPPAVGTACTRLCRPRSAPSRCGPGLRPCAPLEDECEAPLVCRAGCSPEHGFCEQPGECRCLEGWTGPLCTVPVSTSSCLSPRGPSSATTGCLVPGPGPCDGNPCANGGSCSETPRSFECTCPRGFYGLRCEVSGVTCADGPCFNGGLCVGGADPDSAYICHCPPGFQGSNCEKRVDRCSLQPCRNGGLCLDLGHALRCRCRAGFAGPRCEHDLDDCAGRACANGGTCVEGGGAHRCSCALGFGGRDCRERADPCAARPCAHGGRCYAHFSGLVCACAPGYMGARCEFPVHPDGASALPAAPPGLRPGDPQRYL
modifications: biotinylated
